Tested on: Escherichia coli TOP10
Assay: shrunken log2 fold change of peptide-encoding DNA abundance (4.5 h post-induction vs induction); higher = less antimicrobial activity (less host growth inhibition)
Details: time post-induction: 4.5 h; library: site-saturation at positions 5, 18, 19, 20
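Further: peptides expressed intracellularly from a pBAD plasmid library in pooled LB shake-flask culture, induced with 0.3% L-arabinose, DNA abundance read by NGS, three biological replicates, DESeq2 with apeglm shrinkage.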

Sequence	shrunken log2 fold change
RRIRIRPPRLPRPRPRPYWPPRP	-0.28
RRIRIRPPRLPRPRPRPYYLPRP	-0.423
RRIRKRPPRLPRPRPRPAACPRP	0.987
RRIRKRPPRLPRPRPRPAADPRP	0.941
RRIRKRPPRLPRPRPRPAAHPRP	0.408
RRIRKRPPRLPRPRPRPACDPRP	0.861
RRIRKRPPRLPRPRPRPACGPRP	0.845
RRIRKRPPRLPRPRPRPADTPRP	1.03
RRIRKRPPRLPRPRPRPAEGPRP	0.305
RRIRKRPPRLPRPRPRPAEQPRP	0.452
RRIRKRPPRLPRPRPRPAEVPRP	0.171
RRIRKRPPRLPRPRPRPAEYPRP	0.345
RRIRKRPPRLPRPRPRPAFDPRP	0.451
RRIRKRPPRLPRPRPRPAFGPRP	0.564
RRIRKRPPRLPRPRPRPAGEPRP	0.0321
RRIRKRPPRLPRPRPRPAGSPRP	0.0961
RRIRKRPPRLPRPRPRPAHKPRP	0.0404
RRIRKRPPRLPRPRPRPAHTPRP	0.471
RRIRKRPPRLPRPRPRPALNPRP	0.589
RRIRKRPPRLPRPRPRPALQPRP	0.493
RRIRKRPPRLPRPRPRPALSPRP	0.253
RRIRKRPPRLPRPRPRPAMQPRP	0.115
RRIRKRPPRLPRPRPRPANIPRP	0.214
RRIRKRPPRLPRPRPRPANPPRP	0.071
RRIRKRPPRLPRPRPRPAPRPRP	1.26

Sequence	shrunken log2 fold change
RRIRKRPPRLPRPRPRPARGPRP	0.766
RRIRKRPPRLPRPRPRPARNPRP	0.00491
RRIRKRPPRLPRPRPRPARQPRP	0.356
RRIRKRPPRLPRPRPRPASEPRP	0.879
RRIRKRPPRLPRPRPRPASKPRP	-0.25
RRIRKRPPRLPRPRPRPATHPRP	0.426
RRIRKRPPRLPRPRPRPAVQPRP	0.195
RRIRKRPPRLPRPRPRPAWGPRP	0.694
RRIRKRPPRLPRPRPRPAWTPRP	0.261
RRIRKRPPRLPRPRPRPAYTPRP	-0.0132
RRIRKRPPRLPRPRPRPCAVPRP	2.99
RRIRKRPPRLPRPRPRPCEFPRP	0.252
RRIRKRPPRLPRPRPRPCEHPRP	0.015
RRIRKRPPRLPRPRPRPCEKPRP	0.492
RRIRKRPPRLPRPRPRPCELPRP	-0.00602
RRIRKRPPRLPRPRPRPCFGPRP	0.194
RRIRKRPPRLPRPRPRPCGQPRP	0.0682
RRIRKRPPRLPRPRPRPCGRPRP	0.0548
RRIRKRPPRLPRPRPRPCGSPRP	-0.0192
RRIRKRPPRLPRPRPRPCGVPRP	0.143
RRIRKRPPRLPRPRPRPCGWPRP	0.179
RRIRKRPPRLPRPRPRPCILPRP	-0.283
RRIRKRPPRLPRPRPRPCKMPRP	0.093
RRIRKRPPRLPRPRPRPCLPPRP	0.0253
RRIRKRPPRLPRPRPRPCMEPRP	0.0223

Sequence	shrunken log2 fold change
RRIRKRPPRLPRPRPRPCMTPRP	0.0372
RRIRKRPPRLPRPRPRPCNEPRP	-0.00256
RRIRKRPPRLPRPRPRPCNRPRP	0.0247
RRIRKRPPRLPRPRPRPCQRPRP	-0.00088
RRIRKRPPRLPRPRPRPCRDPRP	-0.136
RRIRKRPPRLPRPRPRPCRFPRP	0.0338
RRIRKRPPRLPRPRPRPCRYPRP	-0.00884
RRIRKRPPRLPRPRPRPCWEPRP	0.0666
RRIRKRPPRLPRPRPRPCWGPRP	0.0634
RRIRKRPPRLPRPRPRPCWIPRP	-0.0557
RRIRKRPPRLPRPRPRPCYIPRP	-0.0235
RRIRKRPPRLPRPRPRPDAMPRP	0.618
RRIRKRPPRLPRPRPRPDAYPRP	1.82
RRIRKRPPRLPRPRPRPDCEPRP	1.96
RRIRKRPPRLPRPRPRPDDCPRP	0.149
RRIRKRPPRLPRPRPRPDDVPRP	2.03
RRIRKRPPRLPRPRPRPDFKPRP	-0.0323
RRIRKRPPRLPRPRPRPDHHPRP	-0.37
RRIRKRPPRLPRPRPRPDITPRP	2.24
RRIRKRPPRLPRPRPRPDKCPRP	-0.142
RRIRKRPPRLPRPRPRPDKLPRP	0.367
RRIRKRPPRLPRPRPRPDLKPRP	0.131
RRIRKRPPRLPRPRPRPDLVPRP	0.662
RRIRKRPPRLPRPRPRPDMAPRP	0.0491
RRIRKRPPRLPRPRPRPDNMPRP	0.107

Sequence	shrunken log2 fold change
RRIRKRPPRLPRPRPRPDPCPRP	0.312
RRIRKRPPRLPRPRPRPDRWPRP	0.683
RRIRKRPPRLPRPRPRPDSDPRP	0.123
RRIRKRPPRLPRPRPRPDSNPRP	0.0348
RRIRKRPPRLPRPRPRPDTLPRP	0.0227
RRIRKRPPRLPRPRPRPDVDPRP	1.8
RRIRKRPPRLPRPRPRPDVQPRP	-0.00299
RRIRKRPPRLPRPRPRPDYNPRP	-0.0745
RRIRKRPPRLPRPRPRPEAIPRP	0.101
RRIRKRPPRLPRPRPRPECAPRP	0.339
RRIRKRPPRLPRPRPRPECIPRP	0.0177
RRIRKRPPRLPRPRPRPECKPRP	0.506
RRIRKRPPRLPRPRPRPEDDPRP	0.00862
RRIRKRPPRLPRPRPRPEDFPRP	0.24
RRIRKRPPRLPRPRPRPEDHPRP	0.247
RRIRKRPPRLPRPRPRPEDKPRP	0.0421
RRIRKRPPRLPRPRPRPEFYPRP	-0.0131
RRIRKRPPRLPRPRPRPEHEPRP	1.09
RRIRKRPPRLPRPRPRPEHHPRP	-0.0888
RRIRKRPPRLPRPRPRPEIKPRP	0.977
RRIRKRPPRLPRPRPRPEIMPRP	1.31
RRIRKRPPRLPRPRPRPEIRPRP	0.171
RRIRKRPPRLPRPRPRPEKEPRP	0.139
RRIRKRPPRLPRPRPRPEKMPRP	-0.0217
RRIRKRPPRLPRPRPRPELGPRP	0.823

Sequence	shrunken log2 fold change
RRIRKRPPRLPRPRPRPEMHPRP	0.0496
RRIRKRPPRLPRPRPRPENHPRP	-0.229
RRIRKRPPRLPRPRPRPEPWPRP	0.895
RRIRKRPPRLPRPRPRPEQTPRP	1.15
RRIRKRPPRLPRPRPRPEQWPRP	-0.0362
RRIRKRPPRLPRPRPRPERSPRP	0.245
RRIRKRPPRLPRPRPRPETCPRP	0.0906
RRIRKRPPRLPRPRPRPEVAPRP	1.9
RRIRKRPPRLPRPRPRPEVRPRP	1.86
RRIRKRPPRLPRPRPRPEVTPRP	-0.0421
RRIRKRPPRLPRPRPRPEVYPRP	-0.0138
RRIRKRPPRLPRPRPRPEWMPRP	-0.0537
RRIRKRPPRLPRPRPRPEYPPRP	0.0134
RRIRKRPPRLPRPRPRPEYQPRP	0.0313
RRIRKRPPRLPRPRPRPFAGPRP	0.191
RRIRKRPPRLPRPRPRPFAWPRP	0.462
RRIRKRPPRLPRPRPRPFCTPRP	-0.0968
RRIRKRPPRLPRPRPRPFCWPRP	0.48
RRIRKRPPRLPRPRPRPFDHPRP	0.119
RRIRKRPPRLPRPRPRPFENPRP	0.167
RRIRKRPPRLPRPRPRPFFSPRP	-0.0214
RRIRKRPPRLPRPRPRPFIVPRP	-0.345
RRIRKRPPRLPRPRPRPFLCPRP	0.158
RRIRKRPPRLPRPRPRPFLEPRP	0.194
RRIRKRPPRLPRPRPRPFNFPRP	-0.296

Sequence	shrunken log2 fold change
RRIRKRPPRLPRPRPRPFNLPRP	-0.0494
RRIRKRPPRLPRPRPRPFNNPRP	-0.0235
RRIRKRPPRLPRPRPRPFNYPRP	-0.463
RRIRKRPPRLPRPRPRPFPAPRP	0.341
RRIRKRPPRLPRPRPRPFPCPRP	0.0314
RRIRKRPPRLPRPRPRPFPHPRP	-0.04
RRIRKRPPRLPRPRPRPFPNPRP	0.0546
RRIRKRPPRLPRPRPRPFQNPRP	-0.0235
RRIRKRPPRLPRPRPRPFTRPRP	0.0464
RRIRKRPPRLPRPRPRPFWNPRP	-0.0468
RRIRKRPPRLPRPRPRPGAGPRP	0.734
RRIRKRPPRLPRPRPRPGAMPRP	0.639
RRIRKRPPRLPRPRPRPGCPPRP	0.0566
RRIRKRPPRLPRPRPRPGDCPRP	0.106
RRIRKRPPRLPRPRPRPGDLPRP	0.273
RRIRKRPPRLPRPRPRPGEGPRP	0.0997
RRIRKRPPRLPRPRPRPGFLPRP	0.203
RRIRKRPPRLPRPRPRPGFNPRP	0.0583
RRIRKRPPRLPRPRPRPGFRPRP	0.942
RRIRKRPPRLPRPRPRPGFSPRP	0.297
RRIRKRPPRLPRPRPRPGIHPRP	0.149
RRIRKRPPRLPRPRPRPGIRPRP	0.267
RRIRKRPPRLPRPRPRPGIWPRP	0.362
RRIRKRPPRLPRPRPRPGLTPRP	1.08
RRIRKRPPRLPRPRPRPGMEPRP	0.0527

Reference: the supplement of paper PMC9112550, “Optimization of the antimicrobial peptide Bac7 by deep mutational scanning” (BMC Biology, 2022)
